First the molecules themselves.
B1: LAG-3 D1-D2-LZ wild type W1161-LZ (other)
chain 1: LQPGAEVPVVWAQEGAPAQLPCSPTIPLQDLSLLRRAGVTWQHQPDSGPPAAAPGHPLAPGPHPAAPSSWGPRPRRYTVLSVGPGGLRSGRLPLQPRVQLDERGRQRGDFSLWLRPARRADAGEYRAAVHLRDRALSCRLRLRLGQASMTASPPGSLRASDWVILNCSFSRPDRPASVHWFRNRGQGRVPVRESPHHHLAESFLFLPQVSPMDSGPWGCILTYRDGFNVSIMYNLTVLGGGGGSGGGGSEPKSSDKTHTCPPCPRIARLEEKVKTLKAQNSELASTANMLREQVAQLKQKVMNHHHHHH
chain 2: LQPGAEVPVVWAQEGAPAQLPCSPTIPLQDLSLLRRAGVTWQHQPDSGPPAAAPGHPLAPGPHPAAPSSWGPRPRRYTVLSVGPGGLRSGRLPLQPRVQLDERGRQRGDFSLWLRPARRADAGEYRAAVHLRDRALSCRLRLRLGQASMTASPPGSLRASDWVILNCSFSRPDRPASVHWFRNRGQGRVPVRESPHHHLAESFLFLPQVSPMDSGPWGCILTYRDGFNVSIMYNLTVLGGGGGSGGGGSEPKSSDKTHTCPPCPLTDTLQAETDQLEDEKSALQTEIANLLKEKEKLEFILAAHHHHHH
notes: Leucine zipper dimer of D1-D2-Linker2-c-JUN-His and D1-D2-Linker2-c-FOS-His
B2: LAG-3 D1-D2-LZ mutant WS323-LZ (N183A) (other)
chain 1: B1 chain 1 with N183A
chain 2: B1 chain 2 with N183A
notes: Leucine zipper dimer; D2 entry already carries N183A; copies: 1 + 1
B3: LAG-3 D1-D2-LZ mutant WS331-LZ (P195A) (other)
chain 1: B1 chain 1 with P195A
chain 2: B1 chain 2 with P195A
notes: Leucine zipper dimer; D2 entry already carries P195A; copies: 1 + 1
B4: LAG-3 D1-D2-LZ mutant WS451-LZ (E201G) (other)
chain 1: B1 chain 1 with E201G
chain 2: B1 chain 2 with E201G
notes: Leucine zipper dimer; D2 entry already carries E201G; copies: 1 + 1
B5: LAG-3 D1-D2-LZ mutant WS447-LZ (E201D) (other)
chain 1: B1 chain 1 with E201D
chain 2: B1 chain 2 with E201D
notes: Leucine zipper dimer; D2 entry already carries E201D; copies: 1 + 1
B6: human FGL1-His antigen (ACRO, FG1-H52Hy) (ligand, UniProt Q08830 23-312, looked up)
chain: LEDCAQEQMRLRAQVRLLETRVKQQQVKIKQLLQENEVQFLDKGDENTVIDLGSKRQYADCSEIFNDGYKLSGFYKIKPLQSPAEFSVYCDMSDGGGWTVIQRRSDGSENFNRGWKDYENGFGNFVQKHGEYWLGNKNLHFLTTQEDYTLKIDLADFEKNSRYAQYKNFKVGDEKNFYELNIGEYSGTAGDSLAGNFHPEVQWWASHQRMKFSTWDRDHDNYEGNCAEEDQSGWWFNRCHSANLNGVYYSGPYTAKTDNGIVWYTWHGWWYSLKSVVMKIRPNDFIPNVI
notes: Bought His-tagged protein; also called hFGL1; hFGL1 antigen

Test [1] deals with B6. The experiment in a line: ELISA, same method as in Example 3: construct coated, serially diluted human FGL1 added, OD450. (ELISA stands for enzyme-linked immunosorbent assay.)
In test [2] the target is T1, LAG-3 D1-D2-D3-Fc mutant M212A (UniProt P18627 23-352).
T1 construct: domain: D1-D2-D3; also called LAG-3 D1-D2-D3-Linker-Fc M212A
The experiment in a line: procedures of Examples 2-4 repeated; method not told here.

The target in test [3] is T2, LAG-3 D1-D2-D3-Fc mutant E201D (UniProt P18627 23-352).
T2 construct: domain: D1-D2-D3; also called LAG-3 D1-D2-D3-Linker-Fc E201D
The description is as above.

In test [4] the target is T3, LAG-3 D1-D2-D3-Fc mutant P207I (UniProt P18627 23-352).
T3 construct: domain: D1-D2-D3; also called LAG-3 D1-D2-D3-Linker-Fc P207I
Described as above.

The target of test [5] is T4, LAG-3 D1-D2-D3-Fc mutant E201G (UniProt P18627 23-352).
T4 construct: domain: D1-D2-D3; also called LAG-3 D1-D2-D3-Linker-Fc E201G
The test is described as above.

For test [6], the target named is T5, Y103-7A (LAG3 D1-D2-Fab, anti-PD-L1 Fab) (human).
T5 construct: Dimer of LAG-3-Linker3-VL-CL and LAG-3-Linker3-VH-CH1; the Fab is specific for PD-L1
The experiment in a line: Biacore SPR, antigen amine-coupled on CM5 chip, 1:1 fit. In general terms: SPR reads the build-up and loss of mass on a sensor chip optically.

Test [7] deals with T6, Y103-4A (LAG3 D1-D2-D3-D4-Fab, anti-PD-L1 Fab) (human).
T6 construct: Dimer of LAG-3-Linker3-VL-CL and LAG-3-Linker3-VH-CH1; the Fab is specific for PD-L1
The test is described as above.

Positions count from the first letter of the chain named. Names and notes keep the numbering of the source.

Experimental findings from patent US20240247043A1 (WUHAN YZY BIOPHARMA, published 2024) are described below.

Turning to B1, the binding result in test [1] is “binds”.

In the case of B2, the binding result in test [1] was “binds”.

As to B3, the binding result in test [1] is “binds”.

Consider B4, for which the binding result in test [1] is “binds”.

As to B5, the binding result in test [1] is listed as “binds”.

Broadly, the Kd is a measure of binding affinity in units of concentration. High values mean lower affinity, low ones higher affinity. Turning to B6, the binding result in test [2], in test [3], in test [4] and in test [5] was “binds” throughout. Besides, the Kd in test [6] was found to be 2.46 nM; in test [7] it was 0.929 nM.
